Test results: PMC6321638 (2018)

Target: ALG-2 delta3-23 (Homo sapiens, UniProt O75340, Ca2+)
Test: ITC

Chain of ALG-2 delta3-23 (O75340 3-23, stated change not applied): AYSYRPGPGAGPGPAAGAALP

- Kd: 32.4 nM
B1: SOUL (protein)
chain: AEPLQPDPGAAEDAAAQAVETPGWKAPEDAGPQPGSYEIRHYGPAKWVSTSVESMDWDSAIQTGFTKLNSYIQGKNEKEMKIKMTAPVTSYVEPGSGPFSESTITISLYIPSEQQFDPPRPLESDVFIEDRAEMTVFVRSFDGFSSAQKNQEQLLTLASILREDGKVFDEKVYYTAGYNSPVKLLNRNNEVWLIQKNEPTKENE
